# From article PMC9270970
# Biological target: SynNotch receptor (CD8a signal-Myc-LaG17-Notch1 minimal transmembrane core-tTA) (mouse) (UniProt Q01705)
# UniProt Q01705, sequence (Q01705 whole entry): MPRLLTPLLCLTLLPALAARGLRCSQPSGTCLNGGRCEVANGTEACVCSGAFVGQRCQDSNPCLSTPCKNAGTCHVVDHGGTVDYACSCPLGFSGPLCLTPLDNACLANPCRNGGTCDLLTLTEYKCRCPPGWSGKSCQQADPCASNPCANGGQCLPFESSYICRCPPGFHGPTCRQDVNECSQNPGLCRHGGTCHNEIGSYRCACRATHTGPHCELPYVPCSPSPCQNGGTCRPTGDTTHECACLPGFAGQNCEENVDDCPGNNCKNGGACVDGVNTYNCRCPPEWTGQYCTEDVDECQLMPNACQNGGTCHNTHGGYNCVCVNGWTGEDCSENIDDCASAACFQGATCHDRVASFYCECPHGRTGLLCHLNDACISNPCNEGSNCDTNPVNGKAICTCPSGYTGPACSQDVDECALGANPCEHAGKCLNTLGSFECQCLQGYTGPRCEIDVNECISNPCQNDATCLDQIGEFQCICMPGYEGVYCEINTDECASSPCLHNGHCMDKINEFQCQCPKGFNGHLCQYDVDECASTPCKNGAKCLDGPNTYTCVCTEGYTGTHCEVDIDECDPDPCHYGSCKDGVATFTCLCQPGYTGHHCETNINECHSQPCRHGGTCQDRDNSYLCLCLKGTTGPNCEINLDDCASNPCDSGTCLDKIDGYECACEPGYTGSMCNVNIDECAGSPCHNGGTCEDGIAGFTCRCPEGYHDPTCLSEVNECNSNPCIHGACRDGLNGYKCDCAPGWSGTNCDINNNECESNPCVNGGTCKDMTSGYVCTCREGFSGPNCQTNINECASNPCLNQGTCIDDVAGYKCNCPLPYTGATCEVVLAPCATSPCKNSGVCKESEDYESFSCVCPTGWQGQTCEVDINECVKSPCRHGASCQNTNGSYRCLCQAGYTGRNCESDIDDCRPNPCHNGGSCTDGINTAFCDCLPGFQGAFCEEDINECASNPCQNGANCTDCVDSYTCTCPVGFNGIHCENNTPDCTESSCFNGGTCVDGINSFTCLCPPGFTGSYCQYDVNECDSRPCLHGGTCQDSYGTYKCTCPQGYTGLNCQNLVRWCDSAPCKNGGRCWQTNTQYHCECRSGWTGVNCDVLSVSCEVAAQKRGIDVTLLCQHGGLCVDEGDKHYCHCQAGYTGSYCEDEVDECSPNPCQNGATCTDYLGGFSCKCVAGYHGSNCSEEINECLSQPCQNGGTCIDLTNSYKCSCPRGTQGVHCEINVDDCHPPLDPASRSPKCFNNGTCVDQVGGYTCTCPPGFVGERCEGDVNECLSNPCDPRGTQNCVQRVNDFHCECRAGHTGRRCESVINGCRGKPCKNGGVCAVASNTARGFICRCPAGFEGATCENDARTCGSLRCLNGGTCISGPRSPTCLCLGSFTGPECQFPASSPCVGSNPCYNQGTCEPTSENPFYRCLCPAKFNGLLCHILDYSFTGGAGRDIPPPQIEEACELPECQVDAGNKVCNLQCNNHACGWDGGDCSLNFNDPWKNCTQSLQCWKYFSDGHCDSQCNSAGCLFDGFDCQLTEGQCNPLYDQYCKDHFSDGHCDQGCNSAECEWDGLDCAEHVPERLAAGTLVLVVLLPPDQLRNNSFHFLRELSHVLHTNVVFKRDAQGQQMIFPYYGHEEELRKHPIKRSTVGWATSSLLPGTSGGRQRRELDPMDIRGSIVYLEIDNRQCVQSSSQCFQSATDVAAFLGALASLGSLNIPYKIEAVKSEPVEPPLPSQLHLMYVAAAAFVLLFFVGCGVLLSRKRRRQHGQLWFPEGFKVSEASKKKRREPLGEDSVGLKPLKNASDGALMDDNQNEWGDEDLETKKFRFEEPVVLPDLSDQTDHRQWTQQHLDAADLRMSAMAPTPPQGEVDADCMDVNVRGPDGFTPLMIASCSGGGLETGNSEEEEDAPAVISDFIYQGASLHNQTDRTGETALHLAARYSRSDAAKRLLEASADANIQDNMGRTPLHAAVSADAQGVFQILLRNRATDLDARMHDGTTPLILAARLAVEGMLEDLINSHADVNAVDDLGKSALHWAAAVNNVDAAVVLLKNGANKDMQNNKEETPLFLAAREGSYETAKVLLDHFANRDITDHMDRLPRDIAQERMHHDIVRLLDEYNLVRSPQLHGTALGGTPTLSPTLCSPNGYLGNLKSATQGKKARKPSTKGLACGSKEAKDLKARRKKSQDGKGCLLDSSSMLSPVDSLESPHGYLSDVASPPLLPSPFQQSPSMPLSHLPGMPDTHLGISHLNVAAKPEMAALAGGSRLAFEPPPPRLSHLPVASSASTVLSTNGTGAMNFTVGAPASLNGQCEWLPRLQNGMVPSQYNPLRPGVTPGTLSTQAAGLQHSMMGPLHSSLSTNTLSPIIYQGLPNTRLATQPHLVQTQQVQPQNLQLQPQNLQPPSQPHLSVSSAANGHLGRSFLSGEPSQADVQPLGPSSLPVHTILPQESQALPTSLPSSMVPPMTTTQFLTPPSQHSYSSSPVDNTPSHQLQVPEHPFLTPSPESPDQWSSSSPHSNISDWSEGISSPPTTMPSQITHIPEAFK
substance,measurement,value
membrane-tethered extracellular EGFP (IgGK signal-EGFP-PDGFRB TMD) (ligand),percentage of STC receiver cells that induce mCherry after 24 h of co-culture with different proportions of sender cells (20% to 90% sender cells),> 90%
